# Reference: patent publication US20110038881A1, “PROGNOSTIC ASSAY FOR DETERMINING T CELL RESPONSE TO HLA ANTIGENS AND USE THEREOF IN FIELD OF TISSUE TRANSPLANTATION” (priority 2007, published 2011)
# Biological target: HLA-DRB1*0301 (human)
# Assay: competition binding
# Settings: modification not given
row,IC50,Binder
1,> 100000 nM,EGLPKPLTLRWEPSS [p49]
2,12000 nM,PRFIAVGYVDDTQFV [p4]
3,5610 nM,HTVQRMYGCDVGSDW [p17*]
4,7350 nM,FQKWAAVVVPSGQEQR [p46*]
5,1840 nM,EQLRAYLEGTCVEWL [p32]
6,> 100000 nM,ADMAAQTTKHKWEAA [p29]
7,> 100000 nM,RSWTAADMAAQTTKH [p28]
8,> 100000 nM,EQRYTCHVQHEGLPKP [p48]
9,> 100000 nM,VEWLRRYLENGKETL [p35*]
10,> 100000 nM,YAYDGKDYIALKEDL [p24]
11,> 100000 nM,RGYYNQSEAGSHTVQ [p16*]
12,> 100000 nM,AHVAEQLRAYLEGTC [p31]
13,> 100000 nM,LSFYPAEITLTWQRD [p41]
14,16500 nM,HKWEAAHVAEQLRAY [p30]

# Biological target: HLA-DRB1*1501 (human)
# Assay: competition binding
# Settings: modification not given
row,IC50,Binder
1,50200 nM,EGLPKPLTLRWEPSS [p49]
2,2830 nM,HTVQRMYGCDVGSDW [p17*]
3,> 100000 nM,FQKWAAVVVPSGQEQR [p46*]
4,267 nM,EQLRAYLEGTCVEWL [p32]
5,> 100000 nM,ADMAAQTTKHKWEAA [p29]
6,> 100000 nM,RSWTAADMAAQTTKH [p28]
7,> 100000 nM,EQRYTCHVQHEGLPKP [p48]
8,245 nM,VEWLRRYLENGKETL [p35*]
9,> 100000 nM,YAYDGKDYIALKEDL [p24]
10,> 100000 nM,RGYYNQSEAGSHTVQ [p16*]
11,26 nM,AHVAEQLRAYLEGTC [p31]
12,> 100000 nM,LSFYPAEITLTWQRD [p41]
13,938 nM,HKWEAAHVAEQLRAY [p30]

# Biological target: HLA-DRB5*0101 (human)
# Assay: competition binding
# Settings: modification not given
row,IC50,Binder
1,755 nM,PRFIAVGYVDDTQFV [p4]
2,12000 nM,HTVQRMYGCDVGSDW [p17*]
3,40500 nM,RSWTAADMAAQTTKH [p28]
4,175 nM,RGYYNQSEAGSHTVQ [p16*]

# Biological target: HLA-DRB1*0701 (human)
# Assay: competition binding
# Settings: modification not given
row,IC50,Binder
1,71000 nM,EGLPKPLTLRWEPSS [p49]
2,850 nM,PRFIAVGYVDDTQFV [p4]
3,1590 nM,HTVQRMYGCDVGSDW [p17*]
4,700 nM,FQKWAAVVVPSGQEQR [p46*]
5,149 nM,EQLRAYLEGTCVEWL [p32]
6,> 100000 nM,ADMAAQTTKHKWEAA [p29]
7,12800 nM,RSWTAADMAAQTTKH [p28]
8,29500 nM,EQRYTCHVQHEGLPKP [p48]
9,> 100000 nM,VEWLRRYLENGKETL [p35*]
10,4470 nM,YAYDGKDYIALKEDL [p24]
11,130 nM,RGYYNQSEAGSHTVQ [p16*]
12,> 100000 nM,AHVAEQLRAYLEGTC [p31]
13,> 100000 nM,LSFYPAEITLTWQRD [p41]
14,401 nM,HKWEAAHVAEQLRAY [p30]

# Biological target: HLA-DRB1*1101 (human)
# Assay: competition binding
# Settings: modification not given
row,IC50,Binder
1,2060 nM,EGLPKPLTLRWEPSS [p49]
2,5480 nM,PRFIAVGYVDDTQFV [p4]
3,6480 nM,HTVQRMYGCDVGSDW [p17*]
4,626 nM,FQKWAAVVVPSGQEQR [p46*]
5,424 nM,EQLRAYLEGTCVEWL [p32]
6,> 100000 nM,ADMAAQTTKHKWEAA [p29]
7,10500 nM,RSWTAADMAAQTTKH [p28]
8,693 nM,EQRYTCHVQHEGLPKP [p48]
9,251 nM,VEWLRRYLENGKETL [p35*]
10,184 nM,YAYDGKDYIALKEDL [p24]
11,3180 nM,RGYYNQSEAGSHTVQ [p16*]
12,3340 nM,AHVAEQLRAYLEGTC [p31]
13,2340 nM,LSFYPAEITLTWQRD [p41]
14,379 nM,HKWEAAHVAEQLRAY [p30]

# Biological target: HLA-DRB3*0101 (human)
# Assay: competition binding
# Settings: modification not given
row,IC50,Binder
1,4690 nM,EGLPKPLTLRWEPSS [p49]
2,196 nM,PRFIAVGYVDDTQFV [p4]
3,529 nM,HTVQRMYGCDVGSDW [p17*]
4,1730 nM,FQKWAAVVVPSGQEQR [p46*]
5,1100 nM,EQLRAYLEGTCVEWL [p32]
6,33 nM,ADMAAQTTKHKWEAA [p29]
7,1000 nM,RSWTAADMAAQTTKH [p28]
8,20500 nM,EQRYTCHVQHEGLPKP [p48]
9,> 100000 nM,YAYDGKDYIALKEDL [p24]
10,> 100000 nM,RGYYNQSEAGSHTVQ [p16*]
11,806 nM,HKWEAAHVAEQLRAY [p30]

# Biological target: HLA-DRB1*1301 (human)
# Assay: competition binding
# Settings: modification not given
row,IC50,Binder
1,> 100000 nM,EGLPKPLTLRWEPSS [p49]
2,> 100000 nM,PRFIAVGYVDDTQFV [p4]
3,> 100000 nM,HTVQRMYGCDVGSDW [p17*]
4,> 100000 nM,FQKWAAVVVPSGQEQR [p46*]
5,> 100000 nM,EQLRAYLEGTCVEWL [p32]
6,3840 nM,ADMAAQTTKHKWEAA [p29]
7,> 100000 nM,RSWTAADMAAQTTKH [p28]
8,> 100000 nM,EQRYTCHVQHEGLPKP [p48]
9,8060 nM,VEWLRRYLENGKETL [p35*]
10,> 100000 nM,YAYDGKDYIALKEDL [p24]
11,> 100000 nM,RGYYNQSEAGSHTVQ [p16*]
12,8060 nM,AHVAEQLRAYLEGTC [p31]
13,> 100000 nM,LSFYPAEITLTWQRD [p41]
14,> 100000 nM,HKWEAAHVAEQLRAY [p30]

# Biological target: HLA-DRB1*0401 (human)
# Assay: competition binding
# Settings: modification not given
row,IC50,Binder
1,497 nM,EGLPKPLTLRWEPSS [p49]
2,> 100000 nM,PRFIAVGYVDDTQFV [p4]
3,2120 nM,HTVQRMYGCDVGSDW [p17*]
4,326 nM,FQKWAAVVVPSGQEQR [p46*]
5,1730 nM,EQLRAYLEGTCVEWL [p32]
6,> 100000 nM,ADMAAQTTKHKWEAA [p29]
7,1530 nM,RSWTAADMAAQTTKH [p28]
8,57400 nM,EQRYTCHVQHEGLPKP [p48]
9,> 100000 nM,VEWLRRYLENGKETL [p35*]
10,3870 nM,YAYDGKDYIALKEDL [p24]
11,494 nM,RGYYNQSEAGSHTVQ [p16*]
12,> 100000 nM,AHVAEQLRAYLEGTC [p31]
13,917 nM,LSFYPAEITLTWQRD [p41]
14,118 nM,HKWEAAHVAEQLRAY [p30]

# Biological target: HLA-DRB1*0101 (human)
# Assay: competition binding
# Settings: modification not given
row,IC50,Binder
1,497 nM,EGLPKPLTLRWEPSS [p49]
2,748 nM,PRFIAVGYVDDTQFV [p4]
3,35 nM,HTVQRMYGCDVGSDW [p17*]
4,218 nM,FQKWAAVVVPSGQEQR [p46*]
5,63 nM,EQLRAYLEGTCVEWL [p32]
6,40000 nM,ADMAAQTTKHKWEAA [p29]
7,67 nM,RSWTAADMAAQTTKH [p28]
8,1920 nM,EQRYTCHVQHEGLPKP [p48]
9,598 nM,VEWLRRYLENGKETL [p35*]
10,35 nM,YAYDGKDYIALKEDL [p24]
11,629 nM,AHVAEQLRAYLEGTC [p31]
12,50 nM,LSFYPAEITLTWQRD [p41]
13,29 nM,HKWEAAHVAEQLRAY [p30]

# Biological target: HLA-DRB4*0101 (human)
# Assay: competition binding
# Settings: modification not given
row,IC50,Binder
1,33900 nM,EGLPKPLTLRWEPSS [p49]
2,45700 nM,PRFIAVGYVDDTQFV [p4]
3,> 100000 nM,YAYDGKDYIALKEDL [p24]
4,> 100000 nM,RGYYNQSEAGSHTVQ [p16*]
